In the supplement of paper PMC9170038:

Test system: MS2 coat protein
Test: apparent KD of MS2 coat protein; designed switch direction (-1 OFF switch, 1 ON switch): 1; higher = weaker reporter binding
Summary of the method: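 The apparent KD reported per design is the median over clusters of curve fits to normalised cluster fluorescence. The RNA switches were transcribed on Illumina chips by stalled E. coli RNA polymerase. SNAP-549-labelled MS2 coat protein was titrated from 0.7 or 1.5 nM, doubling up to 3 µM, in Tris-HCl pH 7.5 buffer containing KCl, MgCl2, BSA, DTT, tRNA and Tween-20, with no input, 200 uM small-molecule ligand, or an oligonucleotide input.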

[1] = input ligand: microRNA oligo, concentration not stated
[2] = Eterna round: R95, input ligand: FMN 200 uM
[3] = Eterna round: R95, input ligand: microRNA oligo, concentration not stated
[4] = Eterna round: R95, input ligand: none

Row | Sequence | apparent KD of MS2 coat protein (input ligand: FMN 200 uM) [nM] | apparent KD of MS2 coat protein [1] [nM] | apparent KD of MS2 coat protein (input ligand: none) [nM] | apparent KD of MS2 coat protein [2] [nM] | apparent KD of MS2 coat protein [3] [nM] | apparent KD of MS2 coat protein [4] [nM]
1 | UUACUCAUGUAAGGAUAUGCAGCCGUUUCGGCUGCAGAAGGUACUAUAAUACAUGAGGAUCACCCAUGUCUUUUUAAUUUUGAC [JL SSNG1 1.27] (Eterna round: R96, puzzle: Same State NG 1) | 79.3 | 34.5 | 39.2 | – | – | –
2 | GUUACAUGAGGAUCACCCAUGUAUGUGUGGGAGUAAGUGUCUUAGGAUAUCUAUUAUUGAAAUUAAGAGAAGGAAGAUUGUUGU [JMF's solution 19] (Eterna round: R96, puzzle: Same State NG 3) | – | 98.6 | – | – | – | –
3 | UUAAUGAUGAUAGGAUAUACAUGAGGAAUUCUCGUAGAAGGAUCAUGACAUGAGGAUCACCCAUGUAUCGCUCCGUAGAGCGUA [JL SSNG1 1.14] (Eterna round: R96, puzzle: Same State NG 1) | 934 | 233 | 676 | – | – | –
4 | GGUGUACAUGAGGAUCACCCAUGUCGACCGCUCACAGGAUAUUUAAUACAAACUGGUAGCGGAGAAGGGUGAGGAA [Oresbeve] (puzzle: Same State 1) | – | – | – | 164 | 95.7 | 247
5 | UGGCCAGCCUGUGCUGGGCUUUUGCAUGUACAUGAGGAUCACCCAUGUCGUGUUCAUGCUUUUUGCUCGUCUUUAAA [Photon Torp-03] (puzzle: Sensor for hsa-mir-208a) | – | – | – | 49.5 | 16.3 | 55.8
6 | GUGGUCAGACAUGAGGAUCACCCAUGUGGAAUAAAUAACACACAGGAUAUGUAAUAUAGGAUAUAACAGAAGGGUGGAUUGGUG (Eterna round: R96, puzzle: Same State NG 3) | – | 297 | – | – | – | –
7 | GCGGAACCUGACAUGAGGAUCACCCAUGUUCCGGAAACGGCACAGGAUAUCUGUCCGAAAAGGUCAGAGAAGGGUGAAAACCGC [Fiskers NG3ss - 96] (Eterna round: R96, puzzle: Same State NG 3) | 269 | 714 | 719 | – | – | –
8 | AAACUCGUUGAAGGAUAUCCGGCAGCUAACAAACCGUAACAUGAGGAUCACCCAUGUGUUAGAAAGGAGAAGGUCAGUGACCGG [Eternabot solution 34] (Eterna round: R96, puzzle: Same State NG 2) | 17.2 | 15.9 | 22.3 | – | – | –
9 | CUGCUCGUGUGAGGAUAUGCCGCCGUUUCGGCUGCAGAAGGUGCUACGUUACAUGAGGAUCACCCAUGUCUCUGUUGUUUCGUC [salish99_SSNG1_r04_946] (Eterna round: R96, puzzle: Same State NG 1) | 25.6 | 18.7 | 31.3 | – | – | –
10 | AUUGCUUACGCAGGAUAUGAUGCGAAAAUUGCGUCAGAAGGGUGAAGUGACUCGUUGCAACAAGACAUGAGGAUCACCCAUGUC [SameState NG1 #92] (Eterna round: R96, puzzle: Same State NG 1) | 135 | 116 | 199 | – | – | –
11 | AGCCGAGACUGAGGAUAUAGAAAUCUACAUGAGGAUCACCCAUGUAACAACACGUGGUAGUGAUUCUAGAAGGCGGCUCGGCGC [Omei SS(NG)2 Cv4] (Eterna round: R96, puzzle: Same State NG 2) | 113 | 279 | 1150 | – | – | –
12 | GCCAUCGCAUGAGGAUAUGGCACCGUUUCGGUGCCAGAAGGCAUGUCAAUUGACAUGAGGAUCACCCAUGUAUUAUUGAUGGCA [JL Fiskers NG1ss - 33 mod 7] (Eterna round: R96, puzzle: Same State NG 1) | 55.6 | 448 | 860 | – | – | –
13 | CGCGCUCCGGUAGGAUAUGAGGUGCCGUAGGGACCCGCCUACGGACAUGAGGAUCACCCAUGUCCUCAGAAGGACCGGGCGUGA [Soenonorma] (Eterna round: R96, puzzle: Same State NG 2) | 15.1 | 29.6 | 35.5 | – | – | –
14 | GACCGCGAGGAAGGAUAUGGAGCCUUAUUGGCUCCAGAAGGUCCAUAAGGGACAUGAGGAUCACCCAUGUGGGUUGAAGCGGUC [Fiskers NG1ss - 35] (Eterna round: R96, puzzle: Same State NG 1) | 24.6 | 140 | 160 | – | – | –
15 | GGAUCCGGCACUGAGGAUAUUCAUAUUUAAACAUGAGGAUCACCCAUGUAGGCCAGAAGGCCUUGGGAGAAGGCAGGUCGGCUCG [salish99_ss2_r3_082] (puzzle: Same State 2) | – | – | – | 27.6 | 268 | 484
16 | UUGAAGAAUAUAGGAUAUUGAAUACAUAUGUUUAACAUGAGGAUCACCCAUGUGGGUUGCGGUAUCGAGAAGGAUAAAUAAAAG [Mat - Same State NG 2 - JL mod - D14] (Eterna round: R96, puzzle: Same State NG 2) | 203 | 162 | 181 | – | – | –

Row | Sequence | apparent KD of MS2 coat protein (input ligand: FMN 200 uM) [nM] | apparent KD of MS2 coat protein [1] [nM] | apparent KD of MS2 coat protein (input ligand: none) [nM] | apparent KD of MS2 coat protein [2] [nM] | apparent KD of MS2 coat protein [3] [nM] | apparent KD of MS2 coat protein [4] [nM]
17 | CGUCCGGCCUGUGCUGGCCGGUAGCAUGUACAUGAGGAUCACCCAUGUUCAUGUGCAGGCUUUUUGCUCGUCUUGUG [salish99_mir208a_r3_007] (puzzle: Sensor for hsa-mir-208a) | – | – | – | 34 | 12.3 | 33.8
18 | GCUACCAUUGAAGCCAACAUGAGGAUCACCCAUGUAUGUUGGUAGGAUAUCGUUUGCAAAGCAAACGAGAAGGGCUAAGGUAGC [Mat - Same State NG 3 - JL Mod - D79] (Eterna round: R96, puzzle: Same State NG 3) | 83.5 | 42.1 | 74.4 | – | – | –
19 | CAUCUAUACUUAGGAUAUGUAGGAUAUGCCUACAUGAGGAUCACCCAUGUUCGCAUGGCAGAAGGACAGAAGGAAGAACUACUU [pwkr ssNG2 2FMN + 1F5.5] (Eterna round: R96, puzzle: Same State NG 2) | 94.3 | 57.3 | 266 | – | – | –
20 | GUACAUAUCAGAGGAUAUCACGUCGAAUAGACGUGAGAAGGCUGAUCACACAUGAAUAUUAAUACAUGAGGAUCACCCAUGUAC [SSNG1/13-A1] (Eterna round: R96, puzzle: Same State NG 1) | 16.9 | 24.5 | 31.2 | – | – | –
21 | AACAAUCUAUCUGAGGAUAUCAUGAAAAAAACAUGAGGAUCACCCAUGUGCAGGAAAACUGCAUAUGAGAAGGCAGAUAGAUUGG [salish99_SS2_r3_003] (puzzle: Same State 2) | – | – | – | 23.2 | 589 | 814
22 | CGUAGGUAGCUGGAGGAUAUCUGAGUGGUAACAUGAGGAUCACCCAUGUGAUGUGAGGAACAUGAGGAGAAGGCUAGCUGCCUGC [JL-ss2-3.13 JL mod] (puzzle: Same State 2) | – | – | – | 21.4 | 42.2 | 43.5
23 | AUAAAACAUGAGGAUCACCCAUGUCAACAAAGUCGAGGAUAUGGGCAAAUAAAAGAAUAACCAGAAGGCGAAUAAU [salish99_ss1_r3_053] (puzzle: Same State 1) | – | – | – | 46 | 283 | 481
24 | GGAGAGAGAGCACAGGAUAUUAGAGGAGAGACAUGAGGAUCACCCAUGUAAGAGAGAGAGGAGAGUGAGAAGGGUGAGAGAGAGG [Altered State 2-19 - Jieux - Same State 2] (puzzle: Same State 2) | – | – | – | 241 | 82.9 | 213
25 | GGUCCAGCCUGAGCUGGACAAAAGCAUGUACAUGAGGAUCACCCAUGUUAUGUACAAGCUUUUUGCUCGUCUUAAAA [JL mod - D87 - 10] (Eterna round: R96, puzzle: Sensor for hsa-mir-208a) | 183 | 12.2 | 188 | – | – | –
26 | GCUAGAAUUAAAGCCAACAUGAGGAUCACCCAUGUAUGUUGGUAGGAUAUCGUUUGCAAAGCAAACGAGAAGGGCUAAACUAGC [Mat - Same State NG 3 - JL Mod - D16] (Eterna round: R96, puzzle: Same State NG 3) | 97.9 | 80.2 | 93.8 | – | – | –
27 | CUCAAACAUGAGGAUCACCCAUGUGUUGUCAUGGGAGGAUAUCCAAGUUCGUUGUAGUCGGGAGAAGGCCUAUGUC [× ×•×ª×• ×ž×“×™× ×” × ×—×ª-12] (puzzle: Same State 1) | – | – | – | – | 139 | –
28 | AAGAACAAGCGAAAGGCCCGUCUUAUAUAACAUGAGGAUCACCCAUGUAAGGUGAAAGUUAGAGAGUGGAGGUUGAA [JR_SHM208A_Sub047] (puzzle: Sensor for hsa-mir-208a) | – | – | – | 284 | 282 | 340
29 | UAUUAGAUCCGAGGAUAUCCUUAUAAGAAACAUGAGGAUCACCCAUGUAAAGGGAAUUAUUUGUAGGAGAAGGCGGAUUUAGUU [JR_SSNG2_Sub055] (Eterna round: R96, puzzle: Same State NG 2) | 28.9 | 23 | 41.3 | – | – | –
30 | GUUACAUGAGGAUCACCCAUGUAUGUGUGGGAGUAAGUGUCUUAGGAUAUCUAUCAUUUAAUAUAAGAGAAGGAAGAUUGUUGU [JMF's solution 96] (Eterna round: R96, puzzle: Same State NG 3) | – | 87.3 | – | – | – | –
31 | GCACAUGCACAUGAGGAUCACCCAUGUCCCGCGCCCAUUAGGGCGCGGUGGCCGCAAGUUUUUUGCUCGUCUUAUAA [BIOPHYS241_ElaineNg_2] (puzzle: Sensor for hsa-mir-208a version 2) | – | – | – | 29.4 | 21.3 | 38.8
